Results on 3 molecules are retold here after patent publication US20240082437A1 (Hoffmann-La Roche, published 2024).

For assay [1], the target named is T1, Carcinoembryonic antigen (CEA) (human, UniProt P06731 35-685).
T1 construct: whole, on cells; also called Carcinoembryonic antigen-related cell adhesion molecule 5; CEACAM5
T1 sequence (looked up): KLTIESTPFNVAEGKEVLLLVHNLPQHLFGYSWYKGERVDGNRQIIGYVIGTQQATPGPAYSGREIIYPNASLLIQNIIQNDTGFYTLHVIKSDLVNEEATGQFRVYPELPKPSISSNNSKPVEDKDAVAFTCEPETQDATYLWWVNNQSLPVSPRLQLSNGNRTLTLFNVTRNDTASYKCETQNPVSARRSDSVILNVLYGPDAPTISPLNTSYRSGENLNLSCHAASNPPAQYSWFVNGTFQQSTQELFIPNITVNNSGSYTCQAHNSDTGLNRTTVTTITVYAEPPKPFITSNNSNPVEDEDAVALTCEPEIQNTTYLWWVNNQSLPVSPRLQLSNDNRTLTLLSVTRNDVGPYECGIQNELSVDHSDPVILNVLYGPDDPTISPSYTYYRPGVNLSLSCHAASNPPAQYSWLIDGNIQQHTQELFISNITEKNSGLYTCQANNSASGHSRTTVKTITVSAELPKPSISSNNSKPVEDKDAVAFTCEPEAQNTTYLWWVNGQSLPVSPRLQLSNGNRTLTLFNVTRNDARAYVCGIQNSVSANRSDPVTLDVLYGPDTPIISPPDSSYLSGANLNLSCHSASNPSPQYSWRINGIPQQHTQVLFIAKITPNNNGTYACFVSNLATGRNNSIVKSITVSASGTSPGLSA
In words: flow cytometry on MKN45 cells (CEA), hemibody mixed 1:1 with human ISO control, detected with anti-human IgG(H+L) (FITC in the legend box, A488 in the title).
Experimental: To assess the functionality of the split antibodies or hemibodies, MKN-45 cells were detached from the culture vessel using accutase at 37° C. for 10 minutes. Subsequently, the cells were washed twice in PBS, and seeded into 96 well v-bottom plates to a final density of 4×10⁶ cells/well.
Subsequently, the cells were incubated for 1 h on ice and washed twice in PBS. The cell pellet was resuspended and 40 μl/well of detection reagent was added, either <human IgG(H+L)>FITC, (10 μg/ml) or Pb_Dotam_FITC 1:100=>(10 μg/ml) in PBS/5% FCS. After 60 min incubation on ice, the cells were washed twice in PBS and resuspended in 200 μl PBS/5% FCS for measurement of FITC fluorescence using a FACS canto.

For assay [2], the target named is T1, Carcinoembryonic antigen (CEA). Nature of the assay: FACS on MKN-45 cells, detection with anti-huIgG(H+L)-Alexa488. On the procedure: MKN-45 cells were detached from the culture bottle using Trypsin and were counted using a Casy cell counter. After pelleting at 4° C., 300 g the cells were resuspended in FACS Buffer (2.5% FCS in PBS), adjusted to 2.0E+06 cells/mL dispensed to 96-well PP V-bottom-Platte (25 μL/well=5.0E+04Zellen/well).
Both antibodies were added to the cells either separated followed by buffer or combined and incubated at 4° C. for 1 h. The cells were then washed twice in FACS buffer. After washing, the cells were resuspended in 50 μL FACS-buffer containing secondary antibody (<huIgG(H+L)>-Alexa488, c=10 μg/mL) and incubated 1 h at 4° C. The cells were then washed twice in FACS buffer and resuspended in 70 μl/well FACS buffer for measurement using a FACS Canto (BD, Pharmingen).

B1: P1AD8749 (antibody, human IgG1, kappa, L234A L235A)
heavy 1: QVQLVQSGAEVKKPGASVKVSCKASGYTFTEFGMNWVRQAPGQGLEWMGWINTKTGEATYVEEFKGRVTFTTDTSTSTAYMELRSLRSDDTAVYYCARWDFAYYVEAMDYWGQGTTVTVSSASTKGPSVFPLAPSSKSTSGGTAALGCLVKDYFPEPVTVSWNSGALTSGVHTFPAVLQSSGLYSLSSVVTVPSSSLGTQTYICNVNHKPSNTKVDKKVEPKSCDKTHTCPPCPAPEAAGGPSVFLFPPKPKDTLMISRTPEVTCVVVDVSHEDPEVKFNWYVDGVEVHNAKTKPREEQYNSTYRVVSVLTVLHQDWLNGKEYKCKVSNKALGAPIEKTISKAKGQPREPQVCTLPPSRDELTKNQVSLSCAVKGFYPSDIAVEWESNGQPENNYKTTPPVLDSDGSFFLVSKLTVDKSRWQQGNVFSCSVMHEALHNHYTQKSLSLSPG
heavy 2: not shown
light: DIQMTQSPSSLSASVGDRVTITCKASAAVGTYVAWYQQKPGKAPKLLIYSASYRKRGVPSRFSGSGSGTDFTLTISSLQPEDFATYYCHQYYTYPLFTFGQGTKLEIKRTVAAPSVFIFPPSDEQLKSGTASVVCLLNNFYPREAKVQWKVDNALQSGNSQESVTEQDSKDSTYSLSSTLTLSKADYEKHKVYACEVTHQGLSSPVTKSFNRGEC
notes: Split antibody (hemibody) with CH1A1A anti-CEA Fabs; also called CEA-split-DOTAM-VH; PRIT Split Antibody with DOTAM-VH
Take B1: in assay [1], the “EC50 (read off the curve)” value was approximately 1 µg/mL.

B2: P1AF0713 (antibody)
heavy 1: B1 heavy 1
heavy 2: not shown
light: B1 light
notes: Split antibody with CH1A1A anti-CEA Fabs; Both heavy chains carry VH-CH1; also called CEA specific SPLIT antibody (DOTA-VH-AST); P6_B
Consider B2, for which, in assay [2], the EC50 was 2.3 µg/mL.

B3: P1AF0712 (antibody)
heavy 1: not shown
heavy 2: QVQLVQSGAEVKKPGASVKVSCKASGYTFTEFGMNWVRQAPGQGLEWMGWINTKTGEATYVEEFKGRVTFTTDTSTSTAYMELRSLRSDDTAVYYCARWDFAYYVEAMDYWGQGTTVTVSSASTKGPSVFPLAPSSKSTSGGTAALGCLVKDYFPEPVTVSWNSGALTSGVHTFPAVLQSSGLYSLSSVVTVPSSSLGTQTYICNVNHKPSNTKVDKKVEPKSCDKTHTCPPCPAPEAAGGPSVFLFPPKPKDTLMISRTPEVTCVVVDVSHEDPEVKFNWYVDGVEVHNAKTKPREEQYNSTYRVVSVLTVLHQDWLNGKEYKCKVSNKALGAPIEKTISKAKGQPREPQVCTLPPSRDELTKNQVSLSCAVKGFYPSDIAVEWESNGQPENNYKTTPPVLDSDGSFFLVSKLTVDKSRWQQGNVFSCSVMHEALHNHYTQKSLSLSPGGGGGSGGGGSGGGGSGGGGSQAVVIQESALTTPPGETVTLTCGSSTGAVTASNYANWVQEKPDHLFTGLIGGHNNRPPGVPARFSGSLIGDKAALTIAGTQTEDEAIYFCALWYSDHWVIGGGTKLTVL
light: B1 light
notes: Split antibody with CH1A1A anti-CEA Fabs; Both heavy chains carry VH-CH1; also called CEA specific SPLIT antibody (DOTA-VL); P6_A
In turn, B3 returned a concentration for a half-maximal effect (EC50) in assay [2] of 2.7 µg/mL.
